Reference: paper PMC11790958 (The EMBO Journal, 2024)
No end group written: not given here. *: point of attachment. 5FAM = O=C1OC2(c3ccc(O)cc3Oc3cc(O)ccc32)c2ccc(C(=O)*)cc21; 5‑FAM = 5-carboxyfluorescein label

B1: 5-FAM NCAPD2-C(1376-1398) peptide (peptide)
peptide: 5FAM-SAEMTEDETPKKTTPILRASARR
notes: NCAPD2, human condensin I HAWK subunit, residues 1376-1398 (C-terminal SLiM); also called 5-FAM-NCAPD2(1376-1398); F-NCAPD2-C(1376-1398); source: synthetic peptide; bought: Genscript
B2: 5-FAM-KIF4A WT(1206-1228) peptide (peptide)
peptide: 5FAM-PGKKKKRALASNTSFFSGCSPIE
notes: KIF4A, chromokinesin, residues 1206-1228 (C-terminal tail SLiM); also called 5-FAM-KIF4A(1206-1228); 5-FAM labelled KIF4A; source: synthetic peptide; bought: Genscript
B3: 5-FAM Sgo1(503-523) peptide (peptide)
peptide: TRTKKLFKNAIVNNLSDENST
modifications: also: 5-FAM label, end not given here
notes: Sgo1, yeast shugoshin, residues 503-523, SLiM; also called Sgo peptide; source: synthetic peptide; bought: Genscript
B4: 5-FAM Lrs4(317-337) peptide (peptide)
peptide: {5‑FAM}-NKKRKLTKQRIATLPNSDEEL
notes: also called 5-FAM Lrs4(317-339); Lrs4 peptide; source: synthetic peptide; bought: Genscript

Experiments:
[1] = molecular target: T1, human condensin I pentamer, wild type (human, UniProt O95347 1-1197; Q9NTJ3 1-1288; Q15003 1-741; Q15021 1-1401; Q9BPX3 1-1015); assay: fluorescence polarisation; 100 nM 5-FAM labelled peptide, protein or complex titrated; 20 mM HEPES pH 8, 150 mM KCl, 2.5 mM MgCl, 5% glycerol, 1 mM DTT; room temperature, 15 min; conditions: both partners purified
T1 construct: SMC2, human condensin I subunit; SMC4, human condensin I subunit; NCAPH, human condensin I kleisin subunit; NCAPD2, human condensin I HAWK subunit; NCAPG, human condensin I HAWK subunit; The complex carries a strep tag; also called CI; CIWT; source: Sf9 insect cells (baculovirus), co-expressed, purified (StrepTrap, heparin, SEC); copies: + + + +

[2] = molecular target: T2, yeast condensin pentamer (S. cerevisiae, UniProt P38989 1-1170; Q12267 1-1418; P38170 1-754; Q06156 1-1176; Q06680 1-1035); assay: as above; conditions: both partners purified
T2 construct: Smc2, S. cerevisiae condensin subunit; Smc4, S. cerevisiae condensin subunit; Brn1, S. cerevisiae condensin kleisin subunit; Ycs4, S. cerevisiae condensin HAWK subunit; Ycg1, S. cerevisiae condensin HAWK subunit; also called ScCondensin Pentamer; pentameric yeast condensin; source: purified as described previously (Martínez-García et al, 2022; Lee et al, 2020); copies: + + + +

Binder	Kd [2]	other results
B1	–	binding result [1]: binds
B2	–	Kd [1]: 17.7 µM
B3	4 ± 0.3 µM	–
B4	12.9 ± 2.5 µM	–
